Laboratory results as given in article PMC10899789.

Experiments:
Settings in all cases: 50 mM Tris-HCl pH 7.5, 50 mM NaCl, 10 mM MgCl2; SV at 20 C, SE under same conditions (5000 rpm, 260 nm)
[1] = target: T1, p6CΔ20 del85-104 (Bacillus subtilis phage phi29) (UniProt P03685); assay: sedimentation velocity
T1 sequence: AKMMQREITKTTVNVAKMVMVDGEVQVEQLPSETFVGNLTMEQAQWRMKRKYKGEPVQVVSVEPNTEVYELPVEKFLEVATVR

[2] = target: T2, p6 wt (Bacillus subtilis phage phi29) (UniProt P03685); assay: sedimentation equilibrium
T2 sequence: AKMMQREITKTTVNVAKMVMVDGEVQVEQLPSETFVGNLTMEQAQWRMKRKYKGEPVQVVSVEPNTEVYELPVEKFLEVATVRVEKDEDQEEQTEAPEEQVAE

[3] = target: T1, p6CΔ20 del85-104 (Bacillus subtilis phage phi29); assay: sedimentation equilibrium

GCCCACATACTTTGTTGATTGGTTGTCAATCATGGCAAAAGTGCACGCTACTTTGATAACCTTTTACATGCGACACAGACGAAGCGCTAAAACGTGGGATTCTGTGTCGTTTTATGTTGTTCATTGACAAACCTATCTAGTAGGTCTATAGATTGATATATTAAGTAGTAGTTTCCCTCCCTGATCATGGTATGCCGAGGATCGACGGATTATGTCGATATTAGGAGAATGGTATCATGTGAGGGTGGGGGCTTACTTT (double strand) [L fragment (DNA-L)]
binding [1]: binds | Kd [2]: 2.46 µM | Kd [3]: 1.47 µM
